The text below walks through data of patent publication US20150087581A1 (AURIGENE DISCOVERY TECHNOLOGIES, published 2015).

Where no end group is shown, it is not given here.

The target of assay [1] is hPDL1 expressed on MDA-MB231 cells (human, UniProt Q9NZQ7 19-290). Put plainly: cell-based or functional assay.
In assay [2] the target is T1, recombinant hPDL-2 overexpressed on HEK 293 cells (human, UniProt Q9BQ51 20-273).
T1 chain: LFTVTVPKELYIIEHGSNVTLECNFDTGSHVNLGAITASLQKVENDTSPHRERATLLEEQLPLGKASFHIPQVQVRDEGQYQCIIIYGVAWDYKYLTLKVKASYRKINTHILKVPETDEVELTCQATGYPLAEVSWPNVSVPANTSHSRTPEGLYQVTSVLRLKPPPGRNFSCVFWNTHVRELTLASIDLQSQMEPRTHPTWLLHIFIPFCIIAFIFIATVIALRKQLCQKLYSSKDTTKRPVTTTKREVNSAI
Put plainly: flow cytometry, inhibition of soluble PD1-Fc binding to hPDL2-expressing HEK293 cells. A general note: A flow cytometer gives signals particle by particle.

Chain of hPDL1 expressed on MDA-MB231 cells (Q9NZQ7 19-290): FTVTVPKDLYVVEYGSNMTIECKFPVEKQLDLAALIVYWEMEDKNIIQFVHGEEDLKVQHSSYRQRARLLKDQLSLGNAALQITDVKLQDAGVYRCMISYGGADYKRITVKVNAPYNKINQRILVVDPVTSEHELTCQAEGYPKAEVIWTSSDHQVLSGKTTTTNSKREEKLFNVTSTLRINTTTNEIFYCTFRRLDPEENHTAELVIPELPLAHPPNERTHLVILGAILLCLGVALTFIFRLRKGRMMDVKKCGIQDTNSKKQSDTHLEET

B1: Compound 10 (peptide)
peptide: SNQTDKVLNWYRMLAPKAQIKE-NH2
modifications: not fully specified (residue 6); printed as SNQTDK (SNQTDK) VLNWYRM LAPKAQIKE-NH2
B1: in assay [1], the “Percent rescue (100 nM, compared with 100 nM Comp 8) in mouse splenocyte proliferation CFSE based assay” value was 10.6%.

B2: Compound 8 (peptide)
peptide: SNTSESFKFRVTQLAPKAQIKE-NH2
modifications: not fully specified (residue 8)
For B2, the 50% effective concentration (EC50) in assay [2] came out at 0.722 nM.

By EC50 is commonly meant the midpoint of the concentration-response curve.
